Positions of bridges follow the written chain, without caps; N, C: chain ends. No end group written: not given here.
Key:
skin = assay: Safety assessment of test product on skin; conditions: use for 4 weeks, dermatologist's physical examination
Procedure: Women aged 30-65 having wrinkles around eyes were tested. […] They had second and third visits at the interval of 2 weeks after the start of use, and at each visit, were required to respond to various types of assessment and investigation defined in the experiment.
Furthermore, safety assessment was performed, and for safety of clinical test product, in all subjects having used the test product at least once, abnormal responses found at the second week and fourth week after use and abnormal responses reported during the test period were all used as safety assessment data of the product.

[1] = Burn treatment test: body weight and abnormal syndrome; type: in vivo, SD (Sprague-Dawley) rats; conditions: for BODY WEIGHTS: skin
Procedure: The experiment was carried out with 55 male SD (Sprague-Dawley) rats that were divided into […] groups: 5 rats for normal group (1 group, G1), 9-10 rats for negative control (1 group, G2), 30 rats for experimental group (3 groups, 10 rats in each group, G3, G4, G5), and 9-10 rats for positive control (1 group, G6). In the remaining groups except normal group, burned male SD rats was used for experiment. After SD rats were anesthesized, 2-degree burns, 2 cm in diameter, were induced on the SD rats using an aluminum electric soldering iron.
Test substance HU022 (SEQ ID NO:1) (G3, G4, G5), normal saline solution (G2) and Fiblast (G6) were applied to the skin of the burned male SD rats repeatedly once a day seven times a week for 7 days. Fiblast was applied to control group (G6) in 10 μg/dose/head, and the experimental group was divided into 3 groups and test substance was applied to each group in 3.3 μg/dose/head (G3), 10 μg/dose/head (G4), and 30 μg/dose/head (G5).
With the measurement results, parametric comparison determined significance via Student's t-test and One-Way ANOVA, and significance testing relative to negative control was conducted. Furthermore, with the histopathology test results of burns, Kruskal-Wallis' H-test was conducted, and when significance between groups was identified, comparison between groups was performed through Mann-Whitney U-test. The computation program for statistics was SPSS 10.1 K. P<0.05 was determined to be statistically significant.

[2] = Hair growth test: body weight; type: in vivo; conditions: skin
Procedure: (§1) This test was conducted to assess the influence on hair growth of C57BL/6 mouse when 4 types of test substances, HU024 (SEQ ID NO:2), HU025 (SEQ ID NO:3), HU026 (SEQ ID NO:4), and HU027 (SEQ ID NO:5), were applied to the skin for 14 days.
(§2) The group design was set to negative control (sterile water for injection G1), test substance HU024 (SEQ ID NO:2) 20 ug/head/day (G2), test substance HU024 (SEQ ID NO:2) 60 ug/head/day (G3), test substance HU025 (SEQ ID NO:3) 20 ug/head/day (G4), test substance HU025 (SEQ ID NO:3) 60 ug/head/day (G5), test substance HU026 (SEQ ID NO:4) 20 ug/head/day (G6), test substance HU026 (SEQ ID NO:4) 60 ug/head/day (G7), test substance HU027 (SEQ ID NO:5) 20 ug/head/day (G8), test substance HU027 (SEQ ID NO:5) 60 ug/head/day (G9) and positive control minoxyl 3% (G10) administered groups. Each group had 10 animals.
(§3) After the animal was put under anesthesia using zoletil (1 mL/kg, i.p), the back of the animal was primarily shaved using a depilator, and Veet depilatory was evenly applied on the back. After about 5 minutes, the applied site was cleaned up using gauze moistened with sterile water for injection. Only animal whose shaved back was scarlet in color was used for group separation. The test substance was applied to the same site daily once per day, 7 times per week for 14 days, and the test substance was evenly applied to the shaved site (on the back) by rubbing with a glass rod about 10 times.
The test item was measurements of dead animal, general syndrome, weight change, hair growing area and hair weight, and comparison with negative control was conducted.
(§4) The measurement results were analyzed using SPSS (ver. 10.1K), Duncan t-test for weight changes was conducted through one-way analysis of variance, hair weight was compared between groups using Student's t-test, and hair growing area was compared between groups through nonparametric multiple comparison procedures Whitney-Mann methods. P<0.05 was determined to be statistically significant.

[3] = test system: hair growth of C57BL/6 mouse; assay: Hair growth test: hair weight; type: in vivo
Procedure: as §1, §2, §3
The hair growing area (%) relative to the test substance-applied area was measured and determined, and Image analyzer program (Image Pro Plus ver. 6.3, Cybermetics, USA) was used to measure. It was measured on the 1st, 3rd, 7th, 10th and 14th days after test substance administration. Imaging was performed together with the measurements on the date when the hair area was measured. On the next day after the end of application, the animals were killed by CO2 gas, and hair on the hair growing area was removed by a depilator and hair weight was measured.
as §4

[4] = test system: glaucoma animal model having microbead-induced elevated intraocular pressure; assay: Glaucoma test: intraocular pressure; type: in vivo, mouse; conditions: 20 ug/ml applied to eye once daily
Procedure: For control drug, Taflotan eye drops (Santen Pharmaceutical Co., Ltd.) were used, and for test drug, Taflotan eye drops+HU024 (SEQ ID NO:2) (sample 1), HU024 (SEQ ID NO:2) (sample 2), HU025 (SEQ ID NO:3) (sample 3), HU026 (SEQ ID NO:4) (sample 4), and HU027 (SEQ ID NO:5) (sample 5) were used, and testing was performed on glaucoma animal model having microbead-induced elevated intraocular pressure. In experimental animal model, Rompun solution for injection and zoletil were mixed and used to put the experimental animal under anesthesia, topical anesthetic Alcaine was applied to eye, 1×106 microbead/mL 1 μL was injected into anterior chamber using micro glass needle to induce an increase in intraocular pressure for 2 weeks (IOVS 2011 Vol. 52 36-).
The control drug and 5 samples were provided to the experimental animal having the elevated intraocular pressure for 2 weeks, 5 samples were applied to eye once daily, comparative verification of efficacy was performed, and intraocular pressure reduction and optic nerve cell in the retina was observed through administration for 4 weeks.
The intraocular pressure was measured using a contact-type intraocular pressure meter Tono lab's tonometer TV02 model. […] In 5-7 days after fluorescent probe injection, the eye was enucleated and fixed in 4% paraformaldehyde at room temperature for 4 hours. The retina was separated from choroid of the fixed eye and mounted on a slide. In each experimental group slide, optic nerve cell expressing fluorescence was detected using fluorescence microscope, images were taken at a magnification of ×40 and ×200, and data was collected.

HU022: polypeptide consisting of 452nd-509th amino acids of ADAM 15 (GenBank AAH14566.1), 58 amino acids; commercial product (EYEGENE Inc.)
abnormal response / skin irritation (skin): safe product not causing irritation to the skin
BODY WEIGHTS ([1]; 3.3 μg/head/day, Day 1): 261.24 ± 10.05 g
BODY WEIGHTS ([1]; 3.3 μg/head/day, Day 8): 269.41 ± 17.57 g
BODY WEIGHTS ([1]; 3.3 μg/head/day, Day 15): 300.31 ± 20.36 g
BODY WEIGHTS ([1]; 10 μg/head/day, Day 1): 260.59 ± 9.27 g
BODY WEIGHTS ([1]; 10 μg/head/day, Day 8): 267.86 ± 5.20 g
BODY WEIGHTS ([1]; 10 μg/head/day, Day 15): 296.55 ± 8.86 g
BODY WEIGHTS ([1]; 30 μg/head/day, Day 1): 257.94 ± 9.23 g
BODY WEIGHTS ([1]; 30 μg/head/day, Day 8): 259.49 ± 15.34 g
BODY WEIGHTS ([1]; 30 μg/head/day, Day 15): 284.87 ± 17.06 g
abnormal syndrome after application ([1]; burned male SD rats, skin application): any abnormal syndrome was not observed

HU024 (RPTRGDCDLPEFCPG; disulfide 7-13; listed as Homo sapiens)
BODY WEIGHTS ([2]; 20 ug/head/day, Day 1): 21.34 ± 0.60 g
BODY WEIGHTS ([2]; 20 ug/head/day, Day 7): 22.64 ± 0.76 g
BODY WEIGHTS ([2]; 20 ug/head/day, Day 11): 24.15 ± 0.86 g
BODY WEIGHTS ([2]; 60 ug/head/day, Day 1): 21.54 ± 0.53 g
BODY WEIGHTS ([2]; 60 ug/head/day, Day 7): 23.02 ± 0.74 g
BODY WEIGHTS ([2]; 60 ug/head/day, Day 11): 24.30 ± 1.08 g
HAIR WEIGHTS ([3]; 20 ug/head/day for 14 days): 0.016 ± 0.003 g
HAIR WEIGHTS ([3]; 60 ug/head/day for 14 days): 0.023 ± 0.008 g
intraocular pressure change [4]: A reduction in intraocular pressure was observed

— patent US10632181B2, “Composition, containing RGD motif-containing peptide or fragment thereof, for treating burns and glaucoma, alleviating skin wrinkles, and promoting hair growth” (HUONS CO., LTD., priority 2014, dated 2020)
